# Experimental data published in paper PMC9073949 (Crystal Growth & Design, 2022).
# Values joined by “and” are separate entries in the source; they are usually repeats but may differ in a detail not shown here. Identical values can stand only once. Like-named read-outs stand apart in the source and are kept apart here.
# What was measured:
# [1] = Insulin crystallization kinetics (desupersaturation, induction time, crystal yield); assay type: physicochemical
# Protocol: (§1) Precise temperature control was achieved by using incubators held at a constant temperature. Citric acid buffer (0.1 M) was prepared at different pH levels by varying the ratio between citric acid and tri-sodium citrate. The pH was determined using a Jenway 4330 pH and conductivity meter (Jenway, UK) with an instrument resolution of around ±0.02 pH units. Zinc sulfate (ZnSO4), zinc chloride (ZnCl2), or zinc acetate (ZnAc) were dissolved in citric acid buffer as a zinc salt stock solution. […] Each experimental condition was repeated multiple times, and the error bars represent the deviation between these repetitions. The desupersaturation (crystallization occurs and the solution concentration decreases) was monitored by measuring the UV–vis absorption at a wavelength of 280 nm with a NanoDrop One^c microvolume UV–vis spectrophotometer (Thermo Fischer Scientific, USA). A sample as small as 10–20 μL was withdrawn from the crystallizer (Eppendorf tube) and was centrifuged (6000 rpm, 10–20 min). […] An extinction coefficient of 1.04 mL·mg^–1·cm^–1 was utilized.[32] Multiple dilutions for every sample were made to minimize dilution errors. The crystal slurry which remained in the centrifuged sample was observed underneath an optical microscope (CX-41, Olympus, Japan) to confirm that the decrease in concentration is because of crystallization and not due to other phenomena, such as amorphous precipitation.
# (§2) This lag time is commonly termed as induction time.[33] We found the induction time graphically by finding the intersection between the tangents of the point of inflection (tangent of the biggest gradient after the solution concentration dropped substantially) and the initial concentration (which stays constant until the solution concentration drops substantially). A graphical visualization and a detailed definition and justification of induction time can be found in the Supporting Information.
# The crystal yield was calculated to evaluate the performance of crystallization. […] The yield can be either expressed in terms of concentration or supersaturation ratio, which is St = ct/c* for an ideal solution with […] at time zero. [drawing 2] 2
# [2] = Static light scattering (Debye plot): second osmotic virial coefficient B22 and derived activity coefficient; assay type: physicochemical; conditions: for B22 (second virial coefficient): SLS Debye plot, ≤ 3 mg·mL^–1, 24.0 °C
# Text: The procedure was identical to the DLS experiments, but instead of disposable cuvettes, a quartz cuvette was utilized. After each run, the quartz cuvette was carefully washed with deionized water, ethanol, and IPA followed by drying to remove any impurities and dust before further usage for the next sample. A solvent refractive index of 1.3304 and a refractive index increment of Δn/Δc = 0.183 were utilized.[34] The second virial coefficient was obtained by using Debye plots at low protein concentration (≤ 3 mg·mL^–1).
# [3] = for solubility: equilibrium with crystals, UV 280 nm
# Protocol: as §1, §2
# To ensure that the true solubility concentration was measured, the samples were gently mixed frequently with pipettes once the crystallization experiment had finished. […] Once the concentration had stabilized, that is, no significant change over multiple days, this concentration was taken as solubility.
# [4] = Dynamic light scattering: diffusion coefficient and polydispersity of insulin; assay type: physicochemical; conditions: DLS
# Protocol: The solutions were prepared identically to the crystallization solutions which have been described previously. The solutions were filtered with a 0.22 μm pore size filter into a disposal cuvette (polystyrene) which then was loaded into a Zetasizer μV (Malvern, UK).
# [5] = pH 6.0, St=0 = 10.0, ZnSO4, 24.0 °C
# [6] = pH 6.0, initial insulin 3 mg·mL^–1, ZnSO4 […], 24.0 °C
substance,measurement,setting,value
Human insulin,desupersaturation rate after a yield of 85% was achieved,"[1]; St=0 = 10.0, pH 6.0",0.03 h^–1
same,desupersaturation rate after a yield of 85% was achieved,"[1]; St=0 = 10.0, pH 6.2",0.01 h^–1
same,desupersaturation rate after a yield of 85% was achieved,"[1]; St=0 = 10.0, pH 6.5",0.07 h^–1
same,desupersaturation rate after a yield of 85% was achieved,"[1]; St=0 = 10.0, pH 6.7",0.02 h^–1
same,t50% (time required to achieve a yield of 50%),"[1]; pH 6.0, St=0 = 5.6",128.0 h
same,induction time,"[1]; pH 6.0, St=0 = 5.6, ZnSO4, 24.0 °C",81.0 h
same,crystallization rate ΔS/Δt,[1]; [5],0.18 h^–1
same,induction time,[1]; [5],26.5 h
same,time after which the concentration drops,[1]; [6],4.0 h
same,time to reach quasi-equilibrium concentration,[1]; [6],roughly 20.0 h
same,reduction in induction time,"[1]; pH 6.0, initial supersaturation ratio increased from 5.6 to 10.0",67%
same,decrease in induction time,[1]; pH 6.0 to pH 6.7 at St=0 = 7.4,roughly 81%
same,decrease in induction time,[1]; pH 6.0 to pH 6.7 at St=0 = 10.0,~88%
same,reduction in induction time,"[1]; pH 6.5, initial supersaturation ratio increased from 5.6 to 10.0",77%
same,crystallization rate ΔS/Δt,"[1]; pH 6.7, St=0 = 5.7, 12.0 h to 41.0 h, ZnSO4, 24.0 °C",0.13 h^–1
same,crystallization rate ΔS/Δt,"[1]; pH 6.7, St=0 = 10.0, 1.3 h to 26.0 h, ZnSO4, 24.0 °C",0.32 h^–1
same,time to reach quasi-equilibrium concentration,"[1]; pH 6.7, initial insulin 3 mg·mL^–1, ZnSO4 […], 24.0 °C",~80.0 h
same,B22 (second virial coefficient),[2]; pH 6.0,–4.23 × 10^–4 mL·mol·g^–2
same,B22 (second virial coefficient),[2]; pH 6.2,–2.47 × 10^–4 mL·mol·g^–2
same,B22 (second virial coefficient),[2]; pH 6.5,–4.18 × 10^–4 mL·mol·g^–2
same,B22 (second virial coefficient),[2]; pH 6.7,–4.0 × 10^–4 mL·mol·g^–2
same,γ (activity coefficient),"[2]; pH 6.7, calculated from B22 with eq 4, 24.0 °C",0.96
same,solubility,"[3]; pH 6.0, ZnSO4, 73 mM citric buffer, 7 mM HEPES, 24.0 °C",0.14 mg·mL^–1
same,increase in solubility,"[3]; pH 6.0 to pH 6.7, ZnSO4, 24.0 °C",5 fold
same,solubility,"[3]; pH 6.5, ZnSO4, 73 mM citric buffer, 7 mM HEPES, 24.0 °C",0.41 mg·mL^–1
same,increase in solubility,"[3]; pH 6.5 to pH 6.7 (0.2 pH units), ZnSO4, 24.0 °C",roughly 70%
same,insulin equilibrium concentration (solubility c*),"[3]; pH 6.7, ZnSO4 (SO4^2– anion), thermodynamic, equilibrium with crystals after crystallization, 73 mM citric buffer, 7 mM HEPES, 24.0 °C, monitored up to 4 weeks, UV 280 nm of centrifuged supernatant",0.70 mg·mL^–1 and 0.70 ± 0.03 mg·mL^–1
same,diffusion coefficient,"[4]; pH 6.0, lower end of insulin concentrations probed, 24.0 °C",0.99 × 10^–6 cm^2·s^–1
same,diffusion coefficient,"[4]; pH 6.0, upper end of insulin concentrations probed, 24.0 °C",0.86 × 10^–6 cm^2·s^–1
same,diffusion coefficient,"[4]; pH 6.7, Ac^2– anion, cins = 3 mg·mL^–1, 24.0 °C",0.87 ± 0.1·10^–3 10^–6 cm^2·s^–1
same,diffusion coefficient,"[4]; pH 6.7, Cl^– anion, cins = 3 mg·mL^–1, 24.0 °C",0.87 ± 0.5·10^–3 10^–6 cm^2·s^–1
